Measurements taken from the Immune Epitope Database (IEDB).

Assays:
[1] = target: HLA-A*02:02; experiment: IEDB peptide-MHC binding, purified MHC/competitive/radioactivity; filed as Kd, often an IC50 or EC50 that approximates it; ≥ and ≤ were set here for values at or beyond the usual limits of such assays
[2] = target: HLA-A*02:03; experiment: as above
[3] = target: HLA-A*02:06; experiment: as above
[4] = target: HLA-A*02:01; experiment: IEDB peptide-MHC binding, purified MHC/direct/fluorescence; filed as Kd, often an IC50 or EC50 that approximates it; ≥ and ≤ were set here for values at or beyond the usual limits of such assays
[5] = target: HLA-B*15:01; experiment: as above; conditions: source organism: Haemophilus influenzae
[6] = target: HLA-A*69:01; experiment: as above
[7] = target: HLA-A*30:01; experiment: IEDB peptide-MHC binding, purified MHC/competitive/radioactivity; filed as Kd, often an IC50 or EC50 that approximates it; ≥ and ≤ were set here for values at or beyond the usual limits of such assays
[8] = target: HLA-A*32:01; experiment: as above
[9] = target: HLA-B*40:01; experiment: IEDB peptide-MHC binding, purified MHC/direct/fluorescence; filed as Kd, often an IC50 or EC50 that approximates it; ≥ and ≤ were set here for values at or beyond the usual limits of such assays; conditions: source organism: Mycobacterium tuberculosis variant bovis
[10] = target: HLA-A*30:02; experiment: IEDB peptide-MHC binding, purified MHC/competitive/radioactivity; filed as Kd, often an IC50 or EC50 that approximates it; ≥ and ≤ were set here for values at or beyond the usual limits of such assays
[11] = target: HLA-A*02:01; experiment: IEDB peptide-MHC binding, purified MHC/competitive/fluorescence; ≥ and ≤ were set here for values at or beyond the usual limits of such assays
[12] = target: HLA-A*68:01; experiment: IEDB peptide-MHC binding, purified MHC/competitive/radioactivity; filed as Kd, often an IC50 or EC50 that approximates it; ≥ and ≤ were set here for values at or beyond the usual limits of such assays; conditions: source organism: Dengue virus 3 Martinique/1243/1999
[13] = target: HLA-A*01:01; experiment: IEDB peptide-MHC binding, purified MHC/direct/fluorescence; filed as Kd, often an IC50 or EC50 that approximates it; ≥ and ≤ were set here for values at or beyond the usual limits of such assays; conditions: source organism: Listeria monocytogenes
[14] = target: HLA-B*58:01; experiment: as above; conditions: source organism: Influenza A virus (A/New York/124/2001(H3N2))
[15] = source organism: Vaccinia virus WR
[16] = source organism: Haemophilus influenzae
[17] = source organism: Dengue virus 3 Martinique/1243/1999
[18] = source organism: SARS coronavirus Tor2
[19] = source organism: Dengue virus 2 Jamaica/1409/1983
[20] = source organism: Zaire ebolavirus
[21] = source organism: Escherichia coli
[22] = source organism: Dengue virus 1 Brazil/97-11/1997

Sequence	Kd [1, 15]	Kd [2, 15]	Kd [3, 15]	other results
ITTLLNETA	414 nM	936 nM	596 nM	
AMVPLVMVI				Kd [4, 16]: 435 nM; Kd [5]: 834 nM; Kd [6, 16]: 3430 nM
SINNQLMYDI	492 nM	482 nM	4830 nM	
SGVLWDVPSP				Kd [7, 17]: 3670 nM
LMDMITLSL				Kd [8, 15]: 29.7 nM
FEGIAVLGL				Kd [9]: 67.6 nM
VMCGGSLYV				Kd [1, 18]: 0.606 nM; Kd [2, 18]: 7.5 nM; Kd [3, 18]: 6.81 nM
ALLGERPII				Kd [4, 16]: 7760 nM
KAKGSRAIWY				Kd [10, 19]: 6.68 nM
IMRVMANNV	396 nM	1260 nM	2500 nM	
MTMNIVNFF				Kd [8, 15]: 1.93 nM
KTKISVEKI	7600 nM	112 nM	10700 nM	
RLYNSLKRFT	1060 nM	444 nM	7290 nM	
NAICSAVPSH				Kd [7, 19]: 6440 nM
NIKPVIVPDI	10300 nM	745 nM	945 nM	
FLWVIILFQ				IC50 [11, 20]: 12700 nM
DARVYADPMA				Kd ([7]; source organism: Dengue virus 4 Philippines/H241/1956): 9270 nM
RILAYGPCL				Kd [4, 21]: 418 nM; Kd [6, 21]: ≥ 20000 nM
HWFSRENSY				Kd [10, 17]: 246 nM
AEALKGMPIR				Kd [7, 22]: 1260 nM
KVYINHPFM				Kd [7, 15]: 0.517 nM
DLKHATDYIA	8760 nM	2960 nM	1050 nM	
VLAGIFAGV				Kd ([4]; source organism: Mycobacterium tuberculosis): ≤ 1 nM
VIMEYHLLF				Kd ([8]; source organism: Vaccinia virus Copenhagen): ≥ 77800 nM
ALSGVFCGV				Kd [1, 18]: 1.16 nM; Kd [2, 18]: 11.6 nM; Kd [3, 18]: 49.8 nM
IVCSKTVKNV	10800 nM	503 nM	2760 nM	
DVFYLPPEK				Kd [7, 17]: 1370 nM; Kd [12]: 5.57 nM

Sequence	Kd [1, 15]	Kd [2, 15]	Kd [3, 15]	other results
TTFITVLTSV	1120 nM	16.1 nM	166 nM	
RFRKKKKVY				Kd [13]: ≥ 20000 nM
YLLGDSDSVA	1.97 nM	22.8 nM	135 nM	
IALALEQYGI	980 nM	4920 nM	1130 nM	
KLKIALAKG				Kd [7, 15]: 479 nM
RYRFAFLYL				Kd [7, 15]: 0.169 nM
KNENDQYIY				Kd [10, 19]: 0.15 nM
RAVLDDGIY				Kd [10, 22]: 44.8 nM
AKLTEAITA				IC50 [11, 20]: 28600 nM
LTNKKYRCMA	≥ 34800 nM	5400 nM	≥ 69800 nM	
KVKSYNYML				Kd [7, 15]: 0.175 nM
KMEALQRKY				Kd ([10]; source organism: Dengue virus 2 16681-PDK53): 61.4 nM
TLCDMIKGT				IC50 ([11]; source organism: Vaccinia virus): 23000 nM
TAATKRYPGV	≥ 25500 nM	10500 nM	5570 nM	
GRLITVNPIV				Kd [7, 19]: ≥ 20400 nM
SSSTEVETY				Kd [14]: 495 nM
KLKFRFIIR				Kd [7, 15]: 119 nM
SVRLLNYFK				Kd [7, 15]: 0.238 nM
TLDAANHSI				Kd [1, 18]: 92.4 nM; Kd [2, 18]: 283 nM; Kd [3, 18]: 28.9 nM
IGNEEFLDY				Kd [10, 17]: 961 nM
KTSCSKNEA				Kd [7, 15]: 72.2 nM
TFKNPHAKK				Kd [7, 19]: 1460 nM
PANINDKQIM	≥ 49500 nM	≥ 43100 nM	10900 nM	
TTKATTQIA				Kd [7, 15]: 6.52 nM
DTIAHINTLI	1160 nM	114 nM	≥ 62200 nM	
FTNSQIFNII	143 nM	457 nM	1200 nM	
